Here are results for one molecule from paper PMC2928650.

This data set addresses T1, Ets1 280-441 (UniProt P14921 280-441).
T1 sequence: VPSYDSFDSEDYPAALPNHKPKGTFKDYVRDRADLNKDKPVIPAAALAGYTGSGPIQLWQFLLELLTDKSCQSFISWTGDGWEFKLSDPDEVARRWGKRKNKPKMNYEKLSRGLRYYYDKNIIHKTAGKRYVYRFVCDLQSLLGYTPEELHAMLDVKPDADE
Description: X-ray crystallography.

B1: stromelysin-1 EBS palindrome, crystal duplex (dsDNA)
DNA 1: CAGGAAGCACTTCCTG
DNA 2: GCAGGAAGTGCTTCCT
Turning to B1, the binding result is “binds”.
